PMC8136485, “Were Ancestral Proteins Less Specific?” (Molecular Biology and Evolution, 2021)
Primed or numbered codes have the meaning given here. Ends that are not written are not given here. 5FAM′ = 5-carboxyfluorescein

T1: human S100A5 (human, UniProt P33763 1-92)
T1 sequence: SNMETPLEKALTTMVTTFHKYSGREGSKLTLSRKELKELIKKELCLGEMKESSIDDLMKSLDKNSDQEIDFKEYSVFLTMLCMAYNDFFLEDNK

B1: unlabeled probe peptide GFDWRWGMEALTGGGSAE (peptide)
peptide: GFDWRWGMEALTGGGSAE
notes: the methods name only the nine test peptides and the probe as ordered from Genscript
B2: peptide SRQTTSTHEWVVGGGSAE (peptide)
chain: SRQTTSTHEWVVGGGSAE
modifications: synthetic unlabelled peptide with free N-terminus; C-terminal state not printed. The Methods print the full 18-mer (12-mer + GGGSAE flank, matching the stated library design); the Results form with …
B3: probe peptide 5FAM-GFDWRWGMEALTGGGSAE (peptide)
peptide: {5FAM′}-GFDWRWGMEALTGGGSAE
notes: also called fluorescently labeled probe peptide; source: synthetic peptide, bought: Genscript (95% purity)

Assays:
[1] = biological target: T1, human S100A5; assay: fluorescence polarisation; displacement of the 5FAM probe peptide by increasing unlabeled peptide; 2.4-4.2 µM protein (monomer) with probe at the same concentration; 50 mM TES, 100 mM NaCl, 0.01% Tween-20, pH 7.4; KD,apparent corrected for the probe; conditions: both partners purified
[2] = biological target: human S100A6 (human, UniProt P06703 1-90); assay: as above; conditions: both partners purified

Binder	Kd [1]	Kd [2]	binding result [1]	binding result [2]
B1	2.6 ± 2 µM	12.4 ± 2 µM		
B2	> 1000 µM			
B3			binds	binds
